Measurements reported in article PMC6451106.

B1: Chloroplast SRP54 from Arabidopsis thaliana (natural protein)
chain: EMFGQLTGGLEAAWSKLKGEEVLTKDNIAEPMRDIRRALLEADVSLPVVRRFVQSVSDQAVGMGVIRGVKPDQQLVKIVHDELVKLMGGEVSELQFAKSGPTVILLAGLQGVGKTTVCAKLACYLKKQGKSCMLIAGDVYRPAAIDQLVILGEQVGVPVYTAGTDVKPADIAKQGLKEAKKNNVDVVIMDTAGRLQIDKGMMDELKDVKKFLNPTEVLLVVDAMTGQEAAALVTTFNVEIGITGAILTKLDGDSRGGAALSVKEVSGKPIKLVGRGERMEDLEPFYPDRMAGRILGMGDVLSFVEKATEVMRQEDAEDLQKKIMSAKFDFNDFLKQTRAVAKMGSMTRVLGMIPGMGKVSPAQIREAEKNLLVMEAMIEVMTPEERERPELLAESPERRKRIAKDSGKTEQQVSALVAQIFQMRVKMKNLMGVMEGGSIPALSGLEDALKAEQKAPPGTARRKRKADSRKKFVESASSKPGPRGFGSGN
B2: SRP72 (natural protein)
chain: MASGGSGGVSVPALWSEVNRYGQNGDFTRALKTVNKILQINKDDVTALHCKVVCLIQNGSFKEALNVINTHTKVLANNSLSFEKAYCEYRLNRIENALKTIESANQQTDKLKELYGQVLYRLERYDECLAVYRDLVRNSQDDYDEERKTNLSAVVAAQSNWEKVVPENLGLQEGTHELCYNTACALIGQGQLNQAMKILQKAEDLCRRSLSEDTDGTEEDPQAELAIIHGQMAYILQLQGRTEEALQLYNQIIKLKPTDVGLLAVIANNIITINKDQNVFDSKKKVKLTNAEGVEFKLSKKQLQAIEFNKALLAMYTNQAEQCRKISASLQSQSPEHLLPVLIQAAQLCREKQHTKAIELLQEFSDQHPENAAEIKLTMAQLKISQGNISKACLILRSIEELKHKPGMVSALVTMYSHEEDIDSAIEVFTQAIQWYQNHQPKSPAHLSLIREAANFKLKYGRKKEAISDLQQLWKQNPKDIHTLAQLISAYSLVDPEKAKALSKHLPSSDSMSLKVDVEALENSAGATYIRKKGGKVTGDSQPKEQGQGDLKKKKKKKKGKLPKNYDPKVTPDPERWLPMRERSYYRGRKKGKKKDQIGKGTQGATAGASSELDASKTVSSPPTSPRPGSAATVSASTSNIIPPRHQKPAGAPATKKKQQQKKKKGGKGGW
B3: SRP68/72 complete heterodimer (complex)
chain 1: MAAEKQVPGGGGGGGSGGGGGSGGGGSGGGRGAGGEENKENERPSAGSKANKEFGDSLSLEILQIIKESQQQHGLRHGDFQRYRGYCSRRQRRLRKTLNFKMGNRHKFTGKKVTEELLTDNRYLLLVLMDAERAWSYAMQLKQEANTEPRKRFHLLSRLRKAVKHAEELERLCESNRVDAKTKLEAQAYTAYLSGMLRFEHQEWKAAIEAFNKCKTIYEKLASAFTEEQAVLYNQRVEEISPNIRYCAYNIGDQSAINELMQMRLRSGGTEGLLAEKLEALITQTRAKQAATMSEVEWRGRTVPVKIDKVRIFLLGLADNEAAIVQAESEETKERLFESMLSECRDAIQVVREELKPDQKQRDYILEGEPGKVSNLQYLHSYLTYIKLSTAIKRNENMAKGLQRALLQQQPEDDSKRSPRPQDLIRLYDIILQNLVELLQLPGLEEDKAFQKEIGLKTLVFKAYRCFFIAQSYVLVKKWSEALVLYDRVLKYANEVNSDAGAFKNSLKDLPDVQELITQVRSEKCSLQAAAILDANDAHQTETSSSQVKDNKPLVERFETFCLDPSLVTKQANLVHFPPGFQPIPCKPLFFDLALNHVAFPPLEDKLEQKTKSGLTGYIKGIFGFRS
chain 2: B2 chain
B4: Ffh from E. coli (natural protein)
chain: MFDNLTDRLSRTLRNISGRGRLTEDNVKDTLREVRMALLEADVALPVVREFINRVKEKAVGHEVNKSLTPGQEFVKIVRNELVAAMGEENQTLNLAAQPPAVVLMAGLQGAGKTTSVGKLGKFLREKHKKKVLVVSADVYRPAAIKQLETLAEQVGVDFFPSDVGQKPVDIVNAALKEAKLKFYDVLLVDTAGRLHVDEAMMDEIKQVHASINPVETLFVVDAMTGQDAANTAKAFNEALPLTGVVLTKVDGDARGGAALSIRHITGKPIKFLGVGEKTEALEPFHPDRIASRILGMGDVLSLIEDIESKVDRAQAEKLASKLKKGDGFDLNDFLEQLRQMKNMGGMASLMGKLPGMGQIPDNVKSQMDDKVLVRMEAIINSMTMKERAKPEIIKGSRKRRIAAGCGMQVQDVNRLLKQFDDMQRMMKKMKKGGMAKMMRSMKGMMPPGFPGR

Molecular target: human 80S ribosome (non-translating, Puromycin-treated monosomes) (human (endogenous in HeLa))
Assay: MST

“SRP68/72ΔC (SRP68/72 heterodimer with the C-terminus of SRP72 truncated) (from UniProt Q9UHB9;O76094) (complex)” and “SRαβ heterodimer (SRP receptor; full-length SRα with SRβ lacking its N-terminal TMD) (from UniProt P08240;Q9Y5M8) (complex)” are within 1.5-fold of each other in Kd: 0.42 µM for the first, 0.41 µM for the second.

Compared with “SRP72-RBD+C (C-terminal region of SRP72 including the RBD) (domain or fragment)”, “complete SRPS (SRP S domain: SRPS RNA, SRP19, SRP68/72 and full-length SRP54) (from UniProt P09132;Q9UHB9;O76094;P61011) (complex)” is lower in Kd: 0.92 µM for the first, under 0.0047 µM for the second.

Compared with “quaternary SRPS complex with the SRP68/72 heterodimer without the SRP72 C-terminus (RNA/SRP19/SRP68/72ΔC) (from UniProt P09132;Q9UHB9;O76094)”, “complete SRPS with SRP54ΔC (SRPS RNA, SRP19, SRP68/72 and SRP54ΔC) (from UniProt P09132;Q9UHB9;O76094;P61011) (complex)” is lower in Kd: 0.37 µM for the first, under 0.0047 µM for the second.

Compared with “SRPS/SR complex with SRP54ΔC (without signal sequence) (from UniProt P09132;Q9UHB9;O76094;P61011;P08240;Q9Y5M8)”, SRP54ΔC (domain or fragment) is higher in Kd: under 0.0012 µM for the first, 0.2 µM for the second. The first binds more tightly here.

Going from “SRαΔRBR/SRβ (from UniProt P08240;Q9Y5M8) (complex)” to “SRPS/SR complex with SRP54ss (signal sequence fused to SRP54) (from UniProt P09132;Q9UHB9;O76094;P61011;P08240;Q9Y5M8)”, the Kd falls from over 7.5 µM to under 0.002 µM.

Going from SRP54MΔC (domain or fragment) to “ternary SRPS complex (SRP RNA/SRP19/54) with full-length SRP54 (from UniProt P09132;P61011)”, the Kd falls from 0.1 µM to under 0.0047 µM.

Going from “quaternary SRPS complex with the truncated SRP68/72–RBD constructs (RNA/SRP19/SRP68-RBD/SRP72-RBD in (from UniProt P09132 1-144)” to “SRPS/SR complex with SRP54 (without signal sequence) (from UniProt P09132;Q9UHB9;O76094;P61011;P08240;Q9Y5M8)”, the Kd falls from 1.65 µM to under 0.0014 µM. The second binds more tightly here.

For SRP54NG (domain or fragment), the Kd was 1.65 µM.

“entire human SRP (native 7SL RNA and all six SRP proteins) (from UniProt P49458;P37108;P09132;Q9UHB9;O76094;P61011) (complex)” gave a concentration of saturation of under 2.2 nM.

With SRP54ΔC (domain or fragment) the KD1 (two-site fit, PALMIST) was under 100 nM.

SRP54ΔC (domain or fragment) gave a KD of the first (high-affinity) binding event of 0.1 µM.

“ternary SRPS complex (SRP RNA/SRP19/54) with full-length SRP54 (from UniProt P09132;P61011)” gave a stoichiometry N of 1.

Molecular target: rabbit reticulocyte ribosome-nascent chain complexes exposing an SRP-targeting signal (rabbit | not stated)
Assay: MST

In the case of “entire recombinant SRPS/SR system as measured with RNCs (from UniProt P09132;Q9UHB9;O76094;P61011;P08240;Q9Y5M8) (complex)”, the Kd is reported as under 0.0009 µM.

Molecular target: human 80S ribosome (non-translating, Puromycin-treated monosomes) (human (endogenous in HeLa))
Assay: MST
Remark: another data set of the same source

Compared with B1, B2 is lower in Kd: over 1.2 µM for the first, 0.82 µM for the second. The second binds more tightly here.

For B4, the Kd was 2.3 µM.

In order of rising EC50:
1. B3  0.16 µM
2. B2  0.52 µM
